Where only a bound is given, the exact number is not on record here.

The target of one test is mooring sequence. The following applies: read-out: Kd for the mooring sequence / apoB mRNA; cited from earlier work.
For the next test, the system named is apoB mRNA. The test can be described thus: ultraviolet light cross-linking of ACF (p66) to apoB RNA in liver nuclear extract. The format is binding, rat. How it is done: (§1) In vitro editing reactions and RNA binding assays. In vitro editing reactions and quantitative poisoned-primer extension assays were carried out using 80 μg of extract proteins as previously described (Shah et al. (1993), Smith, H. C. (1998)). ApoB RNA binding assays were performed by subjecting nuclear extract (80 μg) to in vitro editosome assembly and ultraviolet crosslinking (Smith, H. C. (1998)).
To further investigate the role of phosphorylation, rat liver nuclear extract was treated with CIAP and assayed for in vitro apoB RNA editing activity. […] Phosphorylation can play a role in the subcellular localization and/or stability of ACF. […] These yields were achieved by treatment of rat primary hepatocytes (40 T25 flasks) with 0.45% ethanol for four hours in the presence of 70 mCi of total inorganic ^32P followed by immunoprecipitation of ACF64/65 (FIG. 32). Two IPs were resolved by PAGE (FIG. 32, Coomassie) and ACF64/65 identified (western).

The test system of a further test is apoB mRNA editing. The test can be described thus: in vitro apoB mRNA editing activity of nuclear extract after phosphatase treatment. It counts as biochemical, rat. On the procedure:
as §1
As an interaction between ACF and APOBEC-1 is critical for editing activity (Metha et al. Mol Cell Biol 20:1846-54 (2000)) the effect of alkaline phosphatase treatment on in vitro editing activity of hepatocyte extracts was investigated.

The target of another test is T1, ACF (Rattus norvegicus, UniProt Q923K9).
T1 construct: from tissue; host or cells: rat liver nuclear extract (27S gradient fractions)
T1 sequence (Q923K9 1-586 isoform Q923K9-2): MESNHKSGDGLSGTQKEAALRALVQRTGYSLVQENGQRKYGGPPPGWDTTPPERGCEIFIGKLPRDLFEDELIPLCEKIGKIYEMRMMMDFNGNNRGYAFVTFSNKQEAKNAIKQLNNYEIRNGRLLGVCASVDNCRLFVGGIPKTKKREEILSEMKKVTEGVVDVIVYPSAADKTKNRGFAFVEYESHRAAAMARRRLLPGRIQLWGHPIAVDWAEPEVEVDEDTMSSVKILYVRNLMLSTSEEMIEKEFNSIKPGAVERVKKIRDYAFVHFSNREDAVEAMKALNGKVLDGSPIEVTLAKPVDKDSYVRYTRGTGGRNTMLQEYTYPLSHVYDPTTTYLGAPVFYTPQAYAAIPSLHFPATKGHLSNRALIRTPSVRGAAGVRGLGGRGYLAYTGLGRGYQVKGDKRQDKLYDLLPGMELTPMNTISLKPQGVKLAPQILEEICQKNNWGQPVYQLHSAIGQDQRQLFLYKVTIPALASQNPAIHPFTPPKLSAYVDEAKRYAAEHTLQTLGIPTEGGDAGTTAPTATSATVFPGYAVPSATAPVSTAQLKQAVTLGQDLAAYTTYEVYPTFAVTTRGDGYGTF
The test can be described thus: removal of 32P label from immunoprecipitated hepatic ACF. The format is biochemical. The conditions noted are these: in vivo labeled rat hepatic nuclear extract. How it is done: ACF is a phosphoprotein. Previous studies using site-directed mutagenesis of APOBEC-1 and overexpression of protein kinase Co implicated phosphorylation of APOBEC-1 as a mechanism for activating apoB mRNA editing (Chen et al. (2001)). To evaluate whether endogenous ACF is phosphorylated in vivo, rats were radiolabeled for 4 hours via an intraperitoneal injection of orthophosphoric acid in HEPES-buffered saline. Following extensive digestion of hepatic nuclear extracts with DNase I and RNase T1 to remove radiolabeled nucleic acids, ACF was immunoprecipitated with the CT antibody, resolved by SDS-PAGE, transferred to nitrocellulose and analyzed by autoradiography as well as immunoblotting with ACF NT antibody (FIG. 3A). A single band was detected by autoradiography that super-imposed with ACF-specific immunoblot reactivity. Greater than 90% of the ^32P-label was removed by CIAP treatment (FIG. 3B), consistent with the post-translational phosphorylation of protein. […] The amino acid sequence of rat ACF was predicted contain 23 serine/threonine and 7 tyrosine high probability sites of phosphorylation (http://www.cbs.dtu.dk/services.NetPhos and http://expasy.org/tools/scanprosite). […] Nuclear ACF was detected as two predominant charge isoforms (FIG. 3B). […]

A further test has as its system ACF/APOBEC-1 complexes. Briefly: co-immunoprecipitation of HA-tagged APOBEC-1 with ACF from McArdle nuclear extracts. It counts as biochemical, rat. The following applies: nuclear extracts treated with CIAP. How it is done: Nuclear extracts were immunoprecipitated with ACF CT antibody and processed as described in FIG. 1. For CIAP treatment extracts were adjusted to 5 mM MgCl2, 3 mM CaCl2, 0.1 mM ZnCl2 and 25% glycerol and then incubated with 5U CIAP for 1 hour at 30° C. Control extracts were treated similarly but lacked phosphatase. The ratios of APOBEC-1:ACF were determined by scanning densitometry and quantitation using ImageJ Software. HC, position of 1g heavy chain. (n=4, standard deviation+/−0.2). […] In vitro editing activity was determined using the poisoned-primer extension assay. The percent editing was quantified by PhoshorImager (Molecular Dynamics) scanning densitometry. Data shown is representative of 3 independent experiments. *Statistical significance was determined to be P≦0.01 by unpaired t-test relative to control. […] Quantitation of relative amounts of ACF bound was performed using PhoshorImager scanning densitometry. Data shown are representative of 4 independent experiments. *Statistical significance was determined to be P≦0.01 by unpaired t-test relative to control.
Given the selective recovery of APOBEC-1 with nuclear ACF (FIG. 1), the interaction between ACF and APOBEC-1 was explored in nuclear extracts was mediated by post-translational modifications such as protein phosphorylation.

B1: ACF: APOBEC-1 Complementation Factor (protein, UniProt Q923K9 1-594, looked up)
APOBEC1 complementation factor: MESNHKSGDGLSGTQKEAALRALVQRTGYSLVQENGQRKYGGPPPGWDTTPPERGCEIFIGKLPRDLFEDELIPLCEKIGKIYEMRMMMDFNGNNRGYAFVTFSNKQEAKNAIKQLNNYEIRNGRLLGVCASVDNCRLFVGGIPKTKKREEILSEMKKVTEGVVDVIVYPSAADKTKNRGFAFVEYESHRAAAMARRRLLPGRIQLWGHPIAVDWAEPEVEVDEDTMSSVKILYVRNLMLSTSEEMIEKEFNSIKPGAVERVKKIRDYAFVHFSNREDAVEAMKALNGKVLDGSPIEVTLAKPVDKDSYVRYTRGTGGRNTMLQEYTYPLSHVYDPTTTYLGAPVFYTPQAYAAIPSLHFPATKGHLSNRALIRTPSVREIYMNVPVGAAGVRGLGGRGYLAYTGLGRGYQVKGDKRQDKLYDLLPGMELTPMNTISLKPQGVKLAPQILEEICQKNNWGQPVYQLHSAIGQDQRQLFLYKVTIPALASQNPAIHPFTPPKLSAYVDEAKRYAAEHTLQTLGIPTEGGDAGTTAPTATSATVFPGYAVPSATAPVSTAQLKQAVTLGQDLAAYTTYEVYPTFAVTTRGDGYGTF
For the molecule B1, the Kd on mooring sequence was 8 nM.

B2: CIAP: Calf Intestinal Alkaline Phosphatase (protein, UniProt P19111 20-506, looked up)
Intestinal-type alkaline …: LVPVEEEDPAFWNRQAAQALDVAKKLQPIQTAAKNVILFLGDGMGVPTVTATRILKGQMNGKLGPETPLAMDQFPYVALSKTYNVDRQVPDSAGTATAYLCGVKGNYRTIGVSAAARYNQCKTTRGNEVTSVMNRAKKAGKSVGVVTTTRVQHASPAGAYAHTVNRNWYSDADLPADAQMNGCQDIAAQLVNNMDIDVILGGGRKYMFPVGTPDPEYPDDASVNGVRKRKQNLVQAWQAKHQGAQYVWNRTALLQAADDSSVTHLMGLFEPADMKYNVQQDHTKDPTLQEMTEVALRVVSRNPRGFYLFVEGGRIDHGHHDDKAYMALTEAGMFDNAIAKANELTSELDTLILVTADHSHVFSFGGYTLRGTSIFGLAPSKALDSKSYTSILYGNGPGYALGGGSRPDVNDSTSEDPSYQQQAAVPQASETHGGEDVAVFARGPQAHLVHGVEEETFVAHIMAFAGCVEPYTDCNLPAPTTATSIPD
For the molecule B2, the “ultraviolet light cross-linking of ACF to apoB mRNA” value in the test with apoB mRNA (1, 5 or 10 U) is “did not significantly increase ultraviolet light cross-linking of ACF to apoB mRNA”. The “increase in yield of cross-linked p66 compared to control” value in the test with apoB mRNA (highest CIAP treatment) is on record as 40%. For the same molecule, the “inhibition of apoB mRNA editing activity relative to control extracts” value with apoB mRNA editing (CIAP-treated nuclear extract) is reported as 2.5 fold. Also, the “inhibition of in vitro editing activity compared to buffer-treated control extracts” value in the test on apoB mRNA editing (rat liver nuclear extracts) was greater than 50%. Also, the “32P-label removed from ACF” value in the test with ACF is reported as “Greater than 90%”. In addition, the “reduction in HA-tagged APOBEC-1 recovered with immunoprecipitated ACF” value in the test on ACF/APOBEC-1 complexes turned out to be 3 fold.
